According to PMC8643669 (Nucleic Acids Research, 2021):

T1: CBP80, subunit of the purified recombinant CBC (human, UniProt Q09161 1-790)
T1 sequence: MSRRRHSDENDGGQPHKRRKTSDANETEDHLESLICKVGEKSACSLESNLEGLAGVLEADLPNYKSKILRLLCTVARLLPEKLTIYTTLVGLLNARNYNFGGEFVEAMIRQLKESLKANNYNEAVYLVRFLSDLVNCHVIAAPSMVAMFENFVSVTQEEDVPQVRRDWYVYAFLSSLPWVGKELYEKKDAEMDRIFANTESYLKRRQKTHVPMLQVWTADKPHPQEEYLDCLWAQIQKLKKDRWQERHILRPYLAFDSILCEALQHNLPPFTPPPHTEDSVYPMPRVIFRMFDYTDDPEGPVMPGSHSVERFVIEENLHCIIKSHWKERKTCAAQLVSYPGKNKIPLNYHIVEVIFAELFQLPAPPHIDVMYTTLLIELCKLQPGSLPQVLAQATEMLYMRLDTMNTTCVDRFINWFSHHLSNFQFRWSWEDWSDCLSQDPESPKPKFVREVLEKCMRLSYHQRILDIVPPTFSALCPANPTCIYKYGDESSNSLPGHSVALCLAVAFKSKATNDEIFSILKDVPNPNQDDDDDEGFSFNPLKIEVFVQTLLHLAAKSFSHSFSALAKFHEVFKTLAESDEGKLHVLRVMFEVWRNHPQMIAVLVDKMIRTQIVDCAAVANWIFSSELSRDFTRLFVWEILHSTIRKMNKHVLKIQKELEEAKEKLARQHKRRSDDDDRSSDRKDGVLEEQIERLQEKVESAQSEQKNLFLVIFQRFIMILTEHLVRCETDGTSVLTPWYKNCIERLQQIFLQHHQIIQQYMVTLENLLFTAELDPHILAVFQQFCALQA

T2: purified recombinant nuclear cap-binding complex (CBC; heterodimer of CBP80 and CBP20) (human, UniProt Q09161;P52298)
T2 sequence 1: T1 sequence
T2 sequence 2: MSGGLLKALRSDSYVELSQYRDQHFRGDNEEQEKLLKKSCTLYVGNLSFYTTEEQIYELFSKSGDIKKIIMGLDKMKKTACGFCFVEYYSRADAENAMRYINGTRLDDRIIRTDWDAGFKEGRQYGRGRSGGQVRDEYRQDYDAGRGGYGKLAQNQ

B1: FLAG-SRP54 full-length (p3×FLAG-SRP54-FL) (natural protein)
chain: MVLADLGRKITSALRSLSNATIINEEVLNAMLKEVCTALLEADVNIKLVKQLRENVKSAIDLEEMASGLNKRKMIQHAVFKELVKLVDPGVKAWTPTKGKQNVIMFVGLQGSGKTTTCSKLAYYYQRKGWKTCLICADTFRAGAFDQLKQNATKARIPFYGSYTEMDPVIIASEGVEKFKNENFEIIIVDTSGRHKQEDSLFEEMLQVANAIQPDNIVYVMDASIGQACEAQAKAFKDKVDVASVIVTKLDGHAKGGGALSAVAATKSPIIFIGTGEHIDDFEPFKTQPFISKLLGMGDIEGLIDKVNELKLDDNEALIEKLKHGQFTLRDMYEQFQNIMKMGPFSQILGMIPGFGTDFMSKGNEQESMARLKKLMTIMDSMNDQELDSTDGAKVFSKQPGRIQRVARGSGVSTRDVQELLTQYTKFAQMVKKMGGIKGLFKGGDMSKNVSQSQMAKLNQQMAKMMDPRVLHHMGGMAGLQSMMRQFQQGAAGNMKGMMGFNNM
B2: purified recombinant FLAG-SRP54-NG (residues 1-293) (domain or fragment)
chain: MVLADLGRKITSALRSLSNATIINEEVLNAMLKEVCTALLEADVNIKLVKQLRENVKSAIDLEEMASGLNKRKMIQHAVFKELVKLVDPGVKAWTPTKGKQNVIMFVGLQGSGKTTTCSKLAYYYQRKGWKTCLICADTFRAGAFDQLKQNATKARIPFYGSYTEMDPVIIASEGVEKFKNENFEIIIVDTSGRHKQEDSLFEEMLQVANAIQPDNIVYVMDASIGQACEAQAKAFKDKVDVASVIVTKLDGHAKGGGALSAVAATKSPIIFIGTGEHIDDFEPFKTQPFISK

How the values were obtained:
[1] = target: T1, CBP80, subunit of the purified …; experiment: far-Western, overlay or dot blot
[2] = target: T2, purified recombinant nuclear …; experiment: pull-down

| Binder | binding result [1] | binding result [2] |
| --- | --- | --- |
| B1 | binds |  |
| B2 |  | binds |
